# Test results reported in patent US20200132689.
# B1: nicotinamide phosphoribosyltransferase (NAMPT) (protein)
# chain: MNPAAEAEFNILLATDSYKVTHYKQYPPNTSKVYSYFECREKKTENSKLRKVKYEETVFYGLQYILNKYLKGKVVTKEKIQEAKDVYKEHFQDDVFNEKGWNYILEKYDGHLPIEIKAVPEGFVIPRGNVLFTVENTDPECYWLTNWIETILVQSWYPITVATNSREQKKILAKYLLETSGNLDGLEYKLHDFGYRGVSSQETAGIGASAHLVNFKGTDTVAGLALIKKYYGTKDPVPGYSVPAAEHSTITAWGKDHEKDAFEHIVTQFSSVPVSVVSDSYDIYNACEKIWGEDLRHLIVSRSTQAPLIIRPDSGNPLDTVLKVLEILGKKFPVTENSKGYKLLPPYLRVIQGDGVDINTLQEIVEGMKQKMWSIENIAFGSGGGLLQKLTRDLLNCSFKCSYVVTNGLGINVFKDPVADPNKRSKKGRLSLHRTPAGNFVTLEEGKGDLEEYGQDLLHTVFKNGKVTKSYSFDEIRKNAQLNIELEAAHH
# Biological target: panel of anti-NAMPT murine monoclonal antibodies (mAbs)
protein,measurement,value
B1,NAMPT-induced NFκB phosphorylation,highly efficacious in significantly reducing NAMPT-induced NFκB phosphorylation
